Source: article PMC4434323

Biological target: ZC328.2 (ZC328.2) (Caenorhabditis elegans) (UniProt O02050)
Sequence (O02050 entry or part of it): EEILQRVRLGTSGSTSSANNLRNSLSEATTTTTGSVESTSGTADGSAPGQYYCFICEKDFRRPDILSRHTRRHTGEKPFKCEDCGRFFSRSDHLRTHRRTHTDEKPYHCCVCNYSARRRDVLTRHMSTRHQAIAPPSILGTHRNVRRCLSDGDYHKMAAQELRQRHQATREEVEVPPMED

Sequence | binding signal (PBM E-score (-0.5 to 0.5))
CCCCACGC (double strand) [8-mer CCCCACGC] | 0.485
CCCCCACG (double strand) [8-mer CCCCCACG] | 0.48
CCCCCCGC (double strand) [8-mer CCCCCCGC] | 0.486
CCGCCTAC (double strand) [8-mer CCGCCTAC] | 0.488
CGCCCACC (double strand) [8-mer CGCCCACC] | 0.484
CGCCCCCC (double strand) [8-mer CGCCCCCC] | 0.487

Biological target: T1, ZK337.2 (ZK337.2) (Caenorhabditis elegans) (UniProt O46016)
T1 sequence: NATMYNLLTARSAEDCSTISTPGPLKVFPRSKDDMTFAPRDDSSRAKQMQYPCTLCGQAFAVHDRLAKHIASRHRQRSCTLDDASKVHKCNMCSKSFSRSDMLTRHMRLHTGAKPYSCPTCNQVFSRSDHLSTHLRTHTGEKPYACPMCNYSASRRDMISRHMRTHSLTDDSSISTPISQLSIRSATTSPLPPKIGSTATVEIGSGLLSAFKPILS

Sequence | binding signal (PBM E-score (-0.5 to 0.5))
CACCCACG (double strand) [8-mer CACCCACG] | 0.484
CACCCCCA (double strand) [8-mer CACCCCCA] | 0.482
CCACCCAC (double strand) [8-mer CCACCCAC] | 0.491
CCACCCCC (double strand) [8-mer CCACCCCC] | 0.485
CCGCCCCC (double strand) [8-mer CCGCCCCC] | 0.495
CGCCCACA (double strand) [8-mer CGCCCACA] | 0.484
GCCCCCGC (double strand) [8-mer GCCCCCGC] | 0.489

Biological target: T2, lin-29 (W03C9.4) (Caenorhabditis elegans) (UniProt G5EGB2)
T2 sequence: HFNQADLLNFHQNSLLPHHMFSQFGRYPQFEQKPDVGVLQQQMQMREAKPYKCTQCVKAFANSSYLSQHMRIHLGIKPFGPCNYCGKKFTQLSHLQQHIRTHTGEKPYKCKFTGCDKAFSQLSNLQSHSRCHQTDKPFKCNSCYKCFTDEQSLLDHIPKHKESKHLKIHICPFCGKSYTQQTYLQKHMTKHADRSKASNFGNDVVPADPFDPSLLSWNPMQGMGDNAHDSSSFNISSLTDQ

Sequence | binding signal (PBM E-score (-0.5 to 0.5))
AGAAAAAA (double strand) [8-mer AGAAAAAA] | 0.494
ATAAAAAA (double strand) [8-mer ATAAAAAA] | 0.498
CAAAAAAA (double strand) [8-mer CAAAAAAA] | 0.496
GAAAAAAA (double strand) [8-mer GAAAAAAA] | 0.495
TAAAAAAA (double strand) [8-mer TAAAAAAA] | 0.498

Biological target: T3, ztf-29 (Y66D12A.12) (Caenorhabditis elegans) (UniProt Q95Q03)
T3 sequence: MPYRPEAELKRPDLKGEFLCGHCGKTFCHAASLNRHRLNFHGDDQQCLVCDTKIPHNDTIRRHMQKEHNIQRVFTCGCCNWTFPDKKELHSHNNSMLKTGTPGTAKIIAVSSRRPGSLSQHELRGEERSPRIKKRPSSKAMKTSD

Sequence | binding signal (PBM E-score (-0.5 to 0.5))
AAAAGCTT (double strand) [8-mer AAAAGCTT] | 0.492
AAGCTTGT (double strand) [8-mer AAGCTTGT] | 0.489

Biological target: T4, egrh-3 (Y94H6A.11) (Caenorhabditis elegans) (UniProt U4PLQ8)
T4 sequence: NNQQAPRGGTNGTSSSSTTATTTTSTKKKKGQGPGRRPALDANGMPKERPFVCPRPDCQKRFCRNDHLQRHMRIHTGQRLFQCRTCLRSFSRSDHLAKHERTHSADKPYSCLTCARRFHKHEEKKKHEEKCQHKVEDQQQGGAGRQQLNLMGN

Sequence | binding signal (PBM E-score (-0.5 to 0.5))
AAGGGGGG (double strand) [8-mer AAGGGGGG] | 0.495
ACCCCCCC (double strand) [8-mer ACCCCCCC] | 0.497
AGGGGGAG (double strand) [8-mer AGGGGGAG] | 0.493
AGGGGGGA (double strand) [8-mer AGGGGGGA] | 0.493
AGGGGGGG (double strand) [8-mer AGGGGGGG] | 0.498
CCCCCCAC (double strand) [8-mer CCCCCCAC] | 0.495
CCCCCCCA (double strand) [8-mer CCCCCCCA] | 0.496
CCCCCCCC (double strand) [8-mer CCCCCCCC] | 0.5
CCCCCCTC (double strand) [8-mer CCCCCCTC] | 0.497
CCTCCCCC (double strand) [8-mer CCTCCCCC] | 0.496
CTCCCCCC (double strand) [8-mer CTCCCCCC] | 0.497
GCCCCCCC (double strand) [8-mer GCCCCCCC] | 0.496
GGGGGAGA (double strand) [8-mer GGGGGAGA] | 0.493
GGGGGGAA (double strand) [8-mer GGGGGGAA] | 0.493
GGGGGGGA (double strand) [8-mer GGGGGGGA] | 0.499

Biological target: T5, Y53H1A.2 (Y53H1A.2) (Caenorhabditis elegans) (UniProt B1V8K4)
T5 sequence: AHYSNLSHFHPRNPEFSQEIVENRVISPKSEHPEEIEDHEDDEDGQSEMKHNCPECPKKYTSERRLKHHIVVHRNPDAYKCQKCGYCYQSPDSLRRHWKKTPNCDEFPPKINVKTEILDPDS

Sequence | binding signal (PBM E-score (-0.5 to 0.5))
ACCACCGC (double strand) [8-mer ACCACCGC] | 0.483
CCACCACC (double strand) [8-mer CCACCACC] | 0.486
CGACCACC (double strand) [8-mer CGACCACC] | 0.486
CGCCCACC (double strand) [8-mer CGCCCACC] | 0.484
CGGCCGAC (double strand) [8-mer CGGCCGAC] | 0.486
CGGCCGCC (double strand) [8-mer CGGCCGCC] | 0.489
CGGCCGGC (double strand) [8-mer CGGCCGGC] | 0.486
CGGCGGCC (double strand) [8-mer CGGCGGCC] | 0.485
CGGTCGGC (double strand) [8-mer CGGTCGGC] | 0.487
CGGTCGTC (double strand) [8-mer CGGTCGTC] | 0.483
CGGTGGGC (double strand) [8-mer CGGTGGGC] | 0.491
CGGTGGTC (double strand) [8-mer CGGTGGTC] | 0.481
GCGGCCGC (double strand) [8-mer GCGGCCGC] | 0.488
GGTCGGCA (double strand) [8-mer GGTCGGCA] | 0.481
GGTGGGCA (double strand) [8-mer GGTGGGCA] | 0.487

Biological target: T6, ztf-6 (W06H12.1) (Caenorhabditis elegans) (UniProt G5EC77)
T6 sequence: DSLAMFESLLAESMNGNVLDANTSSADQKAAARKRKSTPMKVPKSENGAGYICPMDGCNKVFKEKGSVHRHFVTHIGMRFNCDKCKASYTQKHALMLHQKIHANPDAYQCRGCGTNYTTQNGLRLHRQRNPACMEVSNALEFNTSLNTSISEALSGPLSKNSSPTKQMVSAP

Sequence | binding signal (PBM E-score (-0.5 to 0.5))
AATTTCAG (double strand) [8-mer AATTTCAG] | 0.493
AGCTGAAA (double strand) [8-mer AGCTGAAA] | 0.491
AGTTTCAG (double strand) [8-mer AGTTTCAG] | 0.496
ATCTGAAA (double strand) [8-mer ATCTGAAA] | 0.492
ATTTCAGA (double strand) [8-mer ATTTCAGA] | 0.491
ATTTCAGC (double strand) [8-mer ATTTCAGC] | 0.492
ATTTTCAG (double strand) [8-mer ATTTTCAG] | 0.493
CGCTGAAA (double strand) [8-mer CGCTGAAA] | 0.49
GCTGAAAA (double strand) [8-mer GCTGAAAA] | 0.492
GCTGAAAC (double strand) [8-mer GCTGAAAC] | 0.495
GGCTGAAA (double strand) [8-mer GGCTGAAA] | 0.491
GTCTGAAA (double strand) [8-mer GTCTGAAA] | 0.495
GTTTCAGA (double strand) [8-mer GTTTCAGA] | 0.494
TCTGAAAA (double strand) [8-mer TCTGAAAA] | 0.492
TGCTGAAA (double strand) [8-mer TGCTGAAA] | 0.494

Biological target: T7, C27D6.4 (C27D6.4) (Caenorhabditis elegans) (UniProt Q4JFH9)
T7 sequence: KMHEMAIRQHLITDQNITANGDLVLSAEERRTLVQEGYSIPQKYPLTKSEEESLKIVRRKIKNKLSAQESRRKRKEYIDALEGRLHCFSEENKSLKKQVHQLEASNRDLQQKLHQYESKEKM

Sequence | binding signal (PBM E-score (-0.5 to 0.5))
ACACGTGG (double strand) [8-mer ACACGTGG] | 0.498
ACACGTGT (double strand) [8-mer ACACGTGT] | 0.497
ACGTGGAT (double strand) [8-mer ACGTGGAT] | 0.492
ACGTGGCG (double strand) [8-mer ACGTGGCG] | 0.498
ACGTGTCA (double strand) [8-mer ACGTGTCA] | 0.495
CACGTGGA (double strand) [8-mer CACGTGGA] | 0.495
CACGTGTA (double strand) [8-mer CACGTGTA] | 0.494
CACGTGTC (double strand) [8-mer CACGTGTC] | 0.496
GACGTGGC (double strand) [8-mer GACGTGGC] | 0.494

Biological target: T8, K11D2.4 (K11D2.4) (Caenorhabditis elegans) (UniProt G5EBU1)
T8 sequence: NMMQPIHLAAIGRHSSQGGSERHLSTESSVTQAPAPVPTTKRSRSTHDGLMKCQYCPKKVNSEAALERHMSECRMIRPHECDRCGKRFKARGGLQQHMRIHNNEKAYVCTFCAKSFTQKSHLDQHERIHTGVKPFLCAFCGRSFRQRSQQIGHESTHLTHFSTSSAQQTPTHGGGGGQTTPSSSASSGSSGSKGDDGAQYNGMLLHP

Sequence | binding signal (PBM E-score (-0.5 to 0.5))
AGAAAAAA (double strand) [8-mer AGAAAAAA] | 0.498
ATAAAAAA (double strand) [8-mer ATAAAAAA] | 0.498
CAAAAAAA (double strand) [8-mer CAAAAAAA] | 0.498
GAAAAAAA (double strand) [8-mer GAAAAAAA] | 0.498
TAAAAAAA (double strand) [8-mer TAAAAAAA] | 0.498
